Results taken from the RNAGym collection of RNA variant scans (doi:10.1073/pnas.2313332121).
This sample holds only a part of the variants without activity.

B1: TPR 5TU (parent)
chain: GGAUCUUCUCGAUCUAACAAAAAAGACAAAUCUGCCACAAAGCUUGAGAGCAUCUUCGGAUGCAGAGGCGGCAGCCUUCGGUGGCGCGAUAGCGCCAACGUUCUCAACUAUGACACGCAAAACGCGUGCUCCGUUGAAUGGAGUUUAUCAUG

Variants of: B1
Test: polymerase ribozyme fitness, log enrichment relative to wild type (log ratio); higher = more active; in vitro selection for triplet polymerase activity
Procedure, shortened: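 Mutant libraries were PCR-built and transcribed for each subunit of a heterodimeric triplet polymerase ribozyme and selected for one round in triplicate at −7 °C, frozen, before gel excision of extended constructs and streptavidin-bead capture. Input and output libraries were Illumina-sequenced, keeping genotypes with ≥10 input reads and ≥1 read per output. Fitness is a logarithmic ratio of genotype to wild-type enrichment, in base 2, using inverse-variance-weighted replicate averages.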

Row | Variant | polymerase ribozyme fitness (log ratio)
1 | GGAUCUUCUCGAUCUAACAAAAAAGACAAAUCUGCCACAAAGCUUGAGAGCAUUUUCGGAUGCAGAGGCGGCAGCCUUUGGUGGCGCGAUAGCGCCAACGUUCUCAACUAUGACGCGCAGAUCGCGUGCUCCGUUGAAUGUAGUUUAUCAUG [C54U C79U A115G A120G A122U G141U] | ≤ -4.2
2 | GGAUCUUCUCGAUCUAACAAAAAAGACAAAUCUGCCACAAAGCUUGAGAGCAUUUUCGGCUGCAGAGGCGGCAGCCUUCGGUGGCGCGAUAGCGCCAAUGUUCUCAACUAUGACACGCAAAACGCGUGCUCCGUUGAAUGGAGUUUAUCAUG [C54U A60C C99U] | -3.17
3 | GGAUCUUCUCGAUCUAACAAAAAAGACAAAUCUGCCACAAAGCUUGAGAGCAUUUUCGGAUGCAGAGGCGGCAGCCUUCGGUGGCGCGAUAGAGCCAACGUUCUCAACUGUGACACGCAAAACGCGUGCUCCGUUGGAUCGAGUUUAUCAUG [C54U C93A A110G A137G G140C] | -4.1
4 | GGAUCUUCUCGAUCUAACAAAAAAGACAAAUCUGCCACAAAGCUUGAGAGCAUUUUCAGAUGCCGAGGCGACAGCCUUCGGUGGCGCGAUAGCGCCAACGUUCUCAACUAUGACACGCAAAACGCGUGCUCCGUUGAAUGGAGUUUAUCAUG [C54U G58A A64C G71A] | ≤ -4.2
5 | GGAUCUUCUCGAUCUAACAAAAAAGACAAAUCUGCCACAAAGCUUGAGAGCAUUUUCGCAUGCAGAGGCGGCAGCCUUCGGUAGCGCGAUAGCGCCAACGUUCUCAACUAUGACACUCAAAACGCGUGCUCCGUUGAAUGGAGUUUAUCAUG [C54U G59C G83A G117U] | -0.252
6 | GGAUCUUCUCGAUCUAACAAAAAAGACAAAUCUGCCACAAAGCUUGAGAGCAUUUUCGGAUGCAGGGGCGGUAGCCUUCGCUGGCGCGAUAGCGCAAACGUUCUCAGCUAUGACACGCAAAACGCGUGCUCCUUUGAAUGGAGUAUAUCAUG [C54U A66G C72U G81C C96A A107G G133U U145A] | ≤ -4.2
7 | GGAUCUUCUCGAUCUAACAAAAAAGACAAAUCUGCCACAAAGCUUGAGAGCAUUUUCGGAUGCAGAGGCGGCAGCUUUCGGUGGCGCGAUAGCGCCAACGUUCUCAACUAUGACACGCAAAAAGCGUGCUCCGUUGAAGGGAGUUCAUCCUG [C54U C76U C123A U139G U146C A150C] | ≤ -4.2
8 | GGAUCUUCUCGAUCUAACAAAAAAGACAAAUCUGCCACAAAGCUUGAGAGCAUUUUCGGAUGCAGAGGGGGCAGCCUUCGGUGGGGCGAUAGCGCCAACGUUCUCAACUAUGACACGCAAAACGCGUGCUCCGUUGAAUGGAGUUUAUCAUG [C54U C69G C85G] | -3.9
9 | GGAUCUUCUCGAUCUAACAAAAAAGACAAAUCUGCCACAAAGCUUGAGAGCAUUUUCGGAUGCAGAGUCGGCAGCCUUCGGAGGCGCGAUAGCACCCACGUUCUCAACUAUGACACACAAAACGCGUGCUCCGUUGACUGAAGUUUAUCAUG [C54U G68U U82A G94A A97C G117A A138C G141A] | ≤ -4.2
10 | GGAUCUUCUCGAUCUAACAAAAAAGACAAAUCUGCCACAAAGCUUGAGAGCAUUUUCGGAUGCAGAGGCGGCAGCCUUCGGUGGGGCGAUAGUGCCCACGUUCUCAACUAUGACACGCAAAACGCGUGCUCCGUUGUAGGGAGUUUAUCAUG [C54U C85G C93U A97C A137U U139G] | ≤ -4.2
11 | GGAUCUUCUCGAUCUAACAAAAAAGACAAAUCUGCCACAAAGCUUGAGAGCAUUUUCGGAUGCAGAGGCGGCAGCCUUCGGUGGGGCGAUUGCGCCAACGUUCUCAACUAUGACACGCAAAACGCGUGCUCCGUUGAAUGGAGUUUAUCAUG [C54U C85G A91U] | ≤ -4.2
12 | GGAUCUUCUCGAUCUAACAAAAAAGACAAAUCUGCCACAAAGCUUGAGAGCAUUUUCGGAUGCAGAGGCGGCAGCCUUCGGUGGCGCGAUAGCGACAACGUUCUCAACUAUGACACGCAAAACGCGUGCUCCGUUGAAUGGAGUUUAUCAUG [C54U C95A] | -1.44
13 | GGAUCUUCUCGAUCUAACAAAAAAGACAAAUCUGCCACAAAGCUUGAGAGCAUUUUCGGAUGCAGAGGCGGCAGCCUUCGGUGGCGCGAUAGUGCCAGCGUUCUCAACUAUGACACGCAAAACGCGUGCUCCGUUGAAUGGAGUUUAUCAUG [C54U C93U A98G] | -1.41
14 | GGAUCUUCUCGAUCUAACAAAAAAGACAAAUCUGCCACAAAGCUUGAGAGCAUUUUCGGCUGCAGAGGCGGCAGACUUCGGUGGCGCGAUUGCGCUGACGUUCUCACCUAUGACACGCAAAACGCGUGCUCCGUUAUAUGGAGUUUAUCAUG [C54U A60C C75A A91U C96U A97G A107C G136A A137U] | ≤ -4.2
15 | GGAUCUUCUCGAUCUAACAAAAAAGACAAAUCUGCCACAAAGCUUGAGAGCAUUUUCGGAUGCAGAGGCGGUAGCCUUCGGUGGCGCGAUUGCGGCACCGUUAUCAACUAUGACACGCGAGACGCGUGCUCCGUUGAAUGGAGUUUAUCAUG [C54U C72U A91U C95G A98C C103A A119G A121G] | ≤ -4.2
16 | GGAUCUUCUCGAUCUAACAAAAAAGACAAAUCUGCCACAAAGCUUGAGAGCAUUUUCGGAUGCAGAGGCGGCAGCCUUCGGUGGCGUGAUAGCGCCAACGUUCUAAACUAUGACACGCAAAACGCGUGCUCCGUUGAAUGGAGUUUAUCAUG [C54U C87U C105A] | -2.09
17 | GGAUCUUCUCGAUCUAACAAAAAAGACAAAUCUGCCACAAAGCUUGAGAGCAUUUUCGGAUGCAGAGGCGGCGGCCUUCGGUUGCGCGAUAGCGGCAACUUUCUCAACUAUGACACGCAAAACGCGUGCUCCGUAGAAUGGAGUUUAUCAUG [C54U A73G G83U C95G G100U U135A] | ≤ -4.2
18 | GGAUCUUCUCGAUCUAACAAAAAAGACAAAUCUGCCACAAAGCUUGAGAGCAUUUUCGGAUGCAGAGGCGGCAGCCUUCGGUGGCGCGAUAGCGUCAGCGUUCUCAACUAUGACACGCAAAACGCGUGCUCCGUUGAAUGGUGUUUAUCAUG [C54U C95U A98G A142U] | -1.61
19 | GGAUCUUCUCGAUCUAACAAAAAAGACAAAUCUGCCACAAAGCUUGAGAGCAUUUUCGAAUGCAGAGGCCGCAGCCUUCGGUGGCGCGAUAGCGCCAACGUUCUCAACUAUGACACGCAAAACGCGUGCUCCGUUGAAUGGAGUUUAUCAUG [C54U G59A G70C] | -2.48
